# Experimental data taken from PMC5338925, “Human Nup98 regulates the localization and activity of DExH/D-box helicase DHX9” (eLife, 2017).
# T1: GST-Nup98^1–863 (human, UniProt P52948-4 1-863)
# T1 construct: Nup98, human, residues 1-863; Held on glutathione magnetic agarose beads by its GST; also called GST-Nup98 (bead halo bait); source: purified recombinant protein (E. coli BL21-CodonPlus(DE3), glutathione-Sepharose 4B)
# T1 sequence (looked up): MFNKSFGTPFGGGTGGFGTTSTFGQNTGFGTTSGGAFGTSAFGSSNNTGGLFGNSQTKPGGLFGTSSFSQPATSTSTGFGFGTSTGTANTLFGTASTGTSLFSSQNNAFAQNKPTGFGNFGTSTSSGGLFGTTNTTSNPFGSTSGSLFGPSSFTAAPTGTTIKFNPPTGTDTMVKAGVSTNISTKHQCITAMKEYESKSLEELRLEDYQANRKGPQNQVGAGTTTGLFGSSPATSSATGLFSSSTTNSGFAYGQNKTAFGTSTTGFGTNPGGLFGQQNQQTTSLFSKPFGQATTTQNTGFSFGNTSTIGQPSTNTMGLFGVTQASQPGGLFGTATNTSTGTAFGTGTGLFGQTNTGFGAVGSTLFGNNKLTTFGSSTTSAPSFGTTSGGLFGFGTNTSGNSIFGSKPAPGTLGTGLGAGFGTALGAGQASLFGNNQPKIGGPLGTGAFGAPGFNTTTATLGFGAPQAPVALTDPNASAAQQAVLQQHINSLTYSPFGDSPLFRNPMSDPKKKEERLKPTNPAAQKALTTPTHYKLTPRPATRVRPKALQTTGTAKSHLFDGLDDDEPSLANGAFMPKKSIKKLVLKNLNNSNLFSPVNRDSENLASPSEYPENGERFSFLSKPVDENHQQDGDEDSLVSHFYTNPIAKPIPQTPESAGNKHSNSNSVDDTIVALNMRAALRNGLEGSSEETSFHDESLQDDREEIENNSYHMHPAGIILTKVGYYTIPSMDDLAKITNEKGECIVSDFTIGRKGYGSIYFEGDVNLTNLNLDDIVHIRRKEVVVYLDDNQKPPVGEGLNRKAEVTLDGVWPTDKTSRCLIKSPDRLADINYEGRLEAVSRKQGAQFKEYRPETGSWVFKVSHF
# B1: DHX9 1–380 tagged with eGFP (domain or fragment, human, UniProt Q08211 1-380, looked up)
# chain: MGDVKNFLYAWCGKRKMTPSYEIRAVGNKNRQKFMCEVQVEGYNYTGMGNSTNKKDAQSNAARDFVNYLVRINEIKSEEVPAFGVASPPPLTDTPDTTANAEGDLPTTMGGPLPPHLALKAENNSEVGASGYGVPGPTWDRGANLKDYYSRKEEQEVQATLESEEVDLNAGLHGNWTLENAKARLNQYFQKEKIQGEYKYTQVGPDHNRSFIAEMTIYIKQLGRRIFAREHGSNKKLAAQSCALSLVRQLYHLGVVEAYSGLTKKKEGETVEPYKVNLSQDLEHQLQNIIQELNLEILPPPEDPSVPVALNIGKLAQFEPSQRQNQVGVVPWSPPQSNWNPWTSSNIDEGPLAFATPEQISMDLKNELMYQLEQDHDLQA
# notes: also called N-terminal region (residues 1–380); N-terminal domain of DHX9-GFP; source: purified recombinant protein; not shown: eGFP, C-terminal, kept
# B2: DHX9 821–1270 tagged with eGFP (domain or fragment, human, UniProt Q08211 821-1270, looked up)
# chain: IEPPPLDAVIEAEHTLRELDALDANDELTPLGRILAKLPIEPRFGKMMIMGCIFYVGDAICTIAAATCFPEPFINEGKRLGYIHRNFAGNRFSDHVALLSVFQAWDDARMGGEEAEIRFCEHKRLNMATLRMTWEAKVQLKEILINSGFPEDCLLTQVFTNTGPDNNLDVVISLLAFGVYPNVCYHKEKRKILTTEGRNALIHKSSVNCPFSSQDMKYPSPFFVFGEKIRTRAISAKGMTLVTPLQLLLFASKKVQSDGQIVLVDDWIKLQISHEAAACITGLRAAMEALVVEVTKQPAIISQLDPVNERMLNMIRQISRPSAAGINLMIGSTRYGDGPRPPKMARYDNGSGYRRGGSSYSGGGYGGGYSSGGYGSGGYGGSANSFRAGYGAGVGGGYRGVSRGGFRGNSGGDYRGPSGGYRGSGGFQRGGGRGAYGTGYFGQGRGGGGY
# notes: also called C-terminal segment (residues 821–1270); C-terminal domain of DHX9-GFP; source: purified recombinant protein; not shown: eGFP, C-terminal, kept
# How the values were obtained:
# GST-DHX9 (human) = GST-DHX9 (human) (UniProt Q08211)
# GST-Nup98^1–863 = target: T1, GST-Nup98^1–863; experiment: bead halo assay; GST-Nup98 1-863 held on glutathione magnetic agarose beads (bait); DHX9 domains with C-terminal eGFP (prey) detected by fluorescence microscopy; PBS-T, 10 min, 4 °C; pre-treated with RNase A, poly I:C RNA or buffer alone; settings: both partners purified
ATPase activity (ATP hydrolysis rate) of GST-DHX9 with excess RNA (poly I:C) and increasing concentrations of GST-Nup98 (GST-DHX9 (human)),binding result (GST-Nup98^1–863),Molecule
5 fold,–,GST-Nup98^1–920 (from UniProt P52948-4 1-920) (natural protein)
–,binds,B1
–,binds,B2
